Assay results reported in patent publication US8784821 (Amgen, dated 2014).

Legend:
[1] = target: T1, BSA (blocking agent) (UniProt P02769 25-607); assay: ELISA on uncoated plates blocked with PBS 3% BSA, periplasmic preparation
T1 construct: Specificity control of the ELISA
Procedure: (§1) FIG. 15: ELISA-analysis of periplasmic preparations containing Flag-tagged scFv protein fragments from selected clones. […] Detection was performed by a monoclonal anti-Flag antibody followed by a peroxidase-conjugated polyclonal goat anti-mouse antibody. The ELISA was developed by an ABTS-substrate solution as described in example 3. The OD-values (Y-axis) were measured at 405 nm by an ELISA-reader. Clone numbers are presented on the X-axis, where the first number of the clone number indicates the round of panning in which the respective clone was obtained, while the second number indicates the respective clone of this round. Periplasmic preparation from cells producing the anti-CD3 scFv L2K was included, as well as the purified anti-CD3 antibodies UCHT1, SP34 and OKT3 (concentration of each 1 µg/ml).
(§2) ELISA experiments were carried out by coating the recombinant CD3 epsilon on wells of 96 well plastic plates (Nunc, maxisorb) typically at 4° C. over night. […] After removal of the blocking solution, PPPs and control solutions were added to the wells and incubated for typically one hour at room temperature. The wells were then washed three times with PBS/0.05% Tween 20. Detection of scFvs and control antibodies bound to immobilized antigen was Carried out using a monoclonal murine anti-His6 or anti FLAG-tag antibody (Qiagen anti-PentaHis and M2 anti Flag Sigma, typically each at a final concentration of 1 µg/ml PBS) detected with a peroxidase-labeled polyclonal goat anti- (mouse Fab-fragment) antibody (Dianova, 1 µg/ml PBS). The signal was developed by adding ABTS substrate solution and measured at a wavelength of 405 nm. Unspecific binding of the test-samples to the blocking agent was examined by carrying out the identical assays with the identical reagents and identical timing on ELISA plates which were not coated but blocked with BSA, only.

[2] = target: T2, recombinant soluble extracellular domain of the human CD3 epsilon chain with His6 tag, expressed alone (human); assay: ELISA on coated recombinant CD3-epsilon, periplasmic preparation, anti-Flag detection
T2 construct: also called recombinant CD3-epsilon antigen; rCD3-epsilon
T2 chain: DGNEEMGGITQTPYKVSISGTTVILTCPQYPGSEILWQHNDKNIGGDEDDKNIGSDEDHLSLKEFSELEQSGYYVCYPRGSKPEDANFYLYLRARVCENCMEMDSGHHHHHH
Procedure: as §1, with “14: CD3-specific” for “15:”, “Example” for “example”
as §2

[3] = target: T3, human CD3 complex, native, on CD3-positive human T cells (human, UniProt P07766 23-207; P09693 23-182; P04234 22-171); assay: flow cytometry screening on Jurkat cells, periplasmic preparation
T3 construct: whole, on cells; Presented as part of the TCR/CD3 complex on Jurkat cells (flow cytometry) and on the CD4-positive T cell clone CB15 (cytotoxicity assays); also called CD3 on Jurkat cells; CD3+ Jurkat cells
Procedure: Periplasmic preparations of soluble scFv protein fragments were added to CD3-positive Jurkat cells. Detection was performed by a 1.0 monoclonal anti-Flag antibody followed by a PE-labeled polyclonal anti-mouse antibody. ScFvs binding to cells was measured by an increase in fluorescence intensity as compared to cells that were incubated with PBS alone: Fluorescence intensity is blotted on the X-axis, the number of events is blotted on the Y-axis. The negative control is shown in black, the respective scFvs are shown in gray. Shifting to the right indicates positive binding to the cells. Periplasmic preparation from cells producing the anti-CD3 scFv L2K was included, as well as the purified anti-CD3 antibodies UCHT1, SP34 and OKT3 (concentration of each 5 µg/ml).
Target sequence in this assay (P09693 23-182, chain 2 of 2): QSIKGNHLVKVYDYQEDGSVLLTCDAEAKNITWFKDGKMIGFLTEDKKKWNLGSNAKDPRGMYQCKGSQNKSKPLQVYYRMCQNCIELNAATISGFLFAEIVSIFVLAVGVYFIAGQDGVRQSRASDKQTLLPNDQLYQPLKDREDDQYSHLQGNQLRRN
Target sequence in this assay (P04234 22-171, chain 3 of 2): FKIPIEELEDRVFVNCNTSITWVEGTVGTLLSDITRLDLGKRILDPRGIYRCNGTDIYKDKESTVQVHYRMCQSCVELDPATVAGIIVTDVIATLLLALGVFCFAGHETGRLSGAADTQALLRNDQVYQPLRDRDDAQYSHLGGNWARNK

[4] = target: T3, human CD3 complex, native, on …; assay: conclusion from ELISA (FIGS. 14 and 15) and flow cytometry on Jurkat cells
Target sequence in this assay (P07766 23-207, chain 1 of 3): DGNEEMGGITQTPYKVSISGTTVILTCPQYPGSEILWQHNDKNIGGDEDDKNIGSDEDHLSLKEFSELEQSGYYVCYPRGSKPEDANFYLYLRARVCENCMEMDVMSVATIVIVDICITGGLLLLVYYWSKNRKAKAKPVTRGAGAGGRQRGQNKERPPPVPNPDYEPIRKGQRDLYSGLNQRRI
Target sequence in this assay (P09693 23-182, chain 2 of 3): as the sequence (P09693 23-182, chain 2 of 2) above
Target sequence in this assay (P04234 22-171, chain 3 of 3): as the sequence (P04234 22-171, chain 3 of 2) above

T1 sequence (P02769 25-607 limits assumed): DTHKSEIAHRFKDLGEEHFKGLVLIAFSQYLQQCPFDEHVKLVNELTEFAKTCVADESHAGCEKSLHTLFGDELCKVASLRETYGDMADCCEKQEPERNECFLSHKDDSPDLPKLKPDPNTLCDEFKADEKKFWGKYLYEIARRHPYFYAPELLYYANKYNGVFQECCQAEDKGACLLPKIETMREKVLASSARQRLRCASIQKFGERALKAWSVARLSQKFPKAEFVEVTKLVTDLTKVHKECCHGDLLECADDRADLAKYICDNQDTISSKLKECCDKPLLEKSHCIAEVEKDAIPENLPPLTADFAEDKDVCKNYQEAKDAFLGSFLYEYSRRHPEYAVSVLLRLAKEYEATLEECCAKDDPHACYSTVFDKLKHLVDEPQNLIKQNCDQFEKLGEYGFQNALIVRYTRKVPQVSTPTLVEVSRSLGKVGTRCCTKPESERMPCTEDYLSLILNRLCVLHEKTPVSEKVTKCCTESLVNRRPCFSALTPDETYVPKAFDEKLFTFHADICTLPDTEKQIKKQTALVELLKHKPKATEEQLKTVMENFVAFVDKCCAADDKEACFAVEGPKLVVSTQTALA

B1: human anti-human CD3 scFv 3-271 (FLAG-tagged) (scFv)
scFv: ELQLVEWGAGLLKPSETLSLTCAVYGGSFSGYYWSWIRQPPGKGLEWIGEINHSGSTNYNPSLKSRVTISVDTSKNQFSLKLSSVTAADTAVYYCARGPDRMGHGFDIWGQGTMVTVSSGGGGSGGGGSGGGGSELQMTQSPSSLSASVGDRVTITCRASQSISSYLNWYQQKSGKAPKLLIYAASSLQSGVPSRFSGSGSGTDFTLTISSLQPEDFATYYCQQSYSSPWTFGQGTKVEIKTGDYKDDDDK
notes: VH-(G4S1)3-VL scFv from huLIB-STE, tested as crude periplasmic preparation
binding result [1]: no binding

B2: human anti-human CD3 scFv 3-190 (FLAG-tagged) (scFv)
scFv: ELQLVEWGAGLLKPSETLSLTCAVYGGSFSGYYWSWIRQPPGKGLEWIGEINHSGSTNYNPSLKSRVTISVDTSKNQFSLKLSSVTAADTAVYYCARGRGRFLGWLLGGSNWFDPWGQGTLVTVSSGGGGSGGGGSGGGGSELVMTQSPSSLSASVGDRVTITCRASQGISNYLNWYQQKPGKAPKLLIYDASNLETGVPSRFSGSGSGTDFTLTISSLQPEDFATYYCQQSYSTPYTFGQGTKVDIKTGDYKDDDDK
notes: as for B1
binding result [2]: binds | binding result [3]: binds | binding result [1]: no binding

B3: human anti-human CD3 scFv 4-48 (FLAG-tagged) (scFv)
scFv: ELQLVESGPVLVKPTDTLTLTCTVSGFSLNNPRMGVSWIRQPPGKTLEWLAHIFPSDAKAHSASLKSRLTISKDTSKSQVVPTMTNMDPVDTATYYCARILGEYYPPAWFDPWGQGTLVTVSSGGGGSGGGGSGGGGSELVMTQSPDSLAVSLGERATINCKSSQSVLYSSNNKNYLAWYQQKPGQPPKLLIYWASTRESGVPDRFSGSGSGTDFTLTISSLQAEDVAVYYCQQYLKIPYTFGQGTKVEIKTGDYKDDDDK
notes: VH-(G4S1)3-VL scFv from huLIB-STE, tested as crude periplasmic preparation; also called clone 4-48
binding result [2]: binds | binding result [3]: binds | binding result [1]: no binding

B4: human anti-human CD3 scFv 3-106 (FLAG-tagged) (scFv)
scFv: ELQLVESGGGVVQPGRSLRLSCAASGFTFSSYGMHWVRQAPGKGLEWVAVISYDGSNKYYADSVKGRFTISRDNSKNTLYLQMNSLRSEDTAVYYCARLSPYCTNGVCWDAFDIWGQGTMVTVSSGGGGSGGGGSGGGGSELQMTQSPSSLSASVGDRVSITCRASQTISNYLNWYQLKPGKAPKLLIYAASTLQSEVPTRFSGSGSGTDFTLTISGLHPEDFATYYCQQFNSYPRTFGQGTKVEIKTGDYKDDDDK
notes: VH-(G4S1)3-VL scFv from huLIB-ST, tested as crude periplasmic preparation
binding result [4]: binds | binding result [2]: binds | binding result [1]: no binding

B5: human anti-human CD3 scFv 4-10 (FLAG-tagged) (scFv)
scFv: ELQLVESGGGLVQPGGSLRLSCAASGFTFSSYAMGWVRQAPGKGLEWVSAVSGSGGSTYYADSVKGRFTISRDNSKNTLYLQMNSLRAEDTAVYYCAKAKFLGHYYGMDVWGQGTTVTVSSGGGGSGGGGSGGGGSELQMTQSPSSLSASVGDRVTITCRASQSISSYLNWYQQKPGKAPKLLIYAASSLQSGVPSRFSGSGSGTEFTLTISSLQPEDFATYYCLQHNAYPYTFGQGTKVEIKTGDYKDDDDK
notes: VH-(G4S1)3-VL scFv from huLIB-ST, tested as crude periplasmic preparation; Flag-tag put at the C-terminus because it replaces the vector's His6-tag; also called construct 4-10
binding result [4]: binds | binding result [2]: binds | binding result [1]: no binding

B6: human anti-human CD3 scFv 3-550 (FLAG-tagged) (scFv)
scFv: ELQLVESGPGLVKPSQTLSLTCAISGDSVSSNSAAWNWIRQSPSRGLEWLGRTYYRSKWYNDYAVSVKSRITINPDTSKNQFSLQLNSVTPEDTAVYYCARDRRRIAARQYYGMDVWGQGTTVTVSSGGGGSGGGGSGGGGSELVLTQSPGTLSLSPGERATLSCRASQSVSSNYLAWYQQKPGQAPRLLIYGASSRATGIPDRFSGSGSGTDFTLTISSLQPEDVATYYCQKYNSAPLTFGGGTKVEIKTGDYKDDDDK
notes: as for B1
binding result [2]: binds | binding result [3]: binds | binding result [1]: no binding

B7: human anti-human CD3 scFv 3-148 (FLAG-tagged) (scFv)
scFv: ELQLVESGPGLVKPSGTLSLTCAVSGGSISSRNWWSWVRQPPGKGLEWIGDIYHSGSTNYNPSLKSRVTISVDKSKNQFSLKLSSVTAADTAVYYCASGYTSCRDAFDIWGQGTMVTVSSGGGGSGGGGSGGGGSELVMTQSPSSLSASVGDRVTITCRASQGIGNYLAWYQQKPGQPPKMLIYWASIRESGVPDRFSGSGSGTDFTLTISSLQAEDVAVYYCQQYYSNPQTFGQGTKVEIKTGDYKDDDDK
notes: as for B4
binding result [4]: binds | binding result [2]: binds | binding result [1]: no binding

B8: human anti-human CD3 scFv 3-114 (FLAG-tagged) (scFv)
scFv: ELQLVESGGGLVKPGRSLRLSCTASGFTFGDYAMSWFRQAPGKGLEWVGFIRSKAYGGTTEYAASVKGRFTISRDDSKSIAYLQMNSLKTEDTAVYYCTPQLWLLQDAFDIWGQGTMVTVSSGGGGSGGGGSGGGGSELQMTQSPSSLSASVGDRVTITCRASQGISNYLAWYQQKPGKVPKLLIYAASTLQSGVPSRFSGSGSGTDFTLTISSLQPEDFATYYCQQSYSTPPTFGQGTKLEIKTGDYKDDDDK
notes: as for B4
binding result [4]: binds | binding result [2]: binds | binding result [1]: no binding
